The test has as its target E. coli RNA polymerase in elongating complexes and paused transcription complexes (transcription assays) (E. coli) (UniProt P0A7Z4).

These results are taken from article PMC3682478.

Sequence of E. coli RNA polymerase in elongating complexes and paused transcription complexes (transcription assays) (E. coli) (P0A7Z4 whole entry, chain 1 of 3): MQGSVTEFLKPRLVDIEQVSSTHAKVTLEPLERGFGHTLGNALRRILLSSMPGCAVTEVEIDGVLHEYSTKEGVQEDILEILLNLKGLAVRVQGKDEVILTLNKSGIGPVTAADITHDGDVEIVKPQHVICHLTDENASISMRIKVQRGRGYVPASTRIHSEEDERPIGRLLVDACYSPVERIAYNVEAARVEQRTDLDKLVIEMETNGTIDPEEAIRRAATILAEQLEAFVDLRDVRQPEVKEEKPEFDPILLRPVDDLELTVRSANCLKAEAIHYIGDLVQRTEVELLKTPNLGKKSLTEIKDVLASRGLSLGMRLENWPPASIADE
Sequence of E. coli RNA polymerase in elongating complexes and paused transcription complexes (transcription assays) (E. coli) (P0A8V2 whole entry, chain 2 of 3, further chain): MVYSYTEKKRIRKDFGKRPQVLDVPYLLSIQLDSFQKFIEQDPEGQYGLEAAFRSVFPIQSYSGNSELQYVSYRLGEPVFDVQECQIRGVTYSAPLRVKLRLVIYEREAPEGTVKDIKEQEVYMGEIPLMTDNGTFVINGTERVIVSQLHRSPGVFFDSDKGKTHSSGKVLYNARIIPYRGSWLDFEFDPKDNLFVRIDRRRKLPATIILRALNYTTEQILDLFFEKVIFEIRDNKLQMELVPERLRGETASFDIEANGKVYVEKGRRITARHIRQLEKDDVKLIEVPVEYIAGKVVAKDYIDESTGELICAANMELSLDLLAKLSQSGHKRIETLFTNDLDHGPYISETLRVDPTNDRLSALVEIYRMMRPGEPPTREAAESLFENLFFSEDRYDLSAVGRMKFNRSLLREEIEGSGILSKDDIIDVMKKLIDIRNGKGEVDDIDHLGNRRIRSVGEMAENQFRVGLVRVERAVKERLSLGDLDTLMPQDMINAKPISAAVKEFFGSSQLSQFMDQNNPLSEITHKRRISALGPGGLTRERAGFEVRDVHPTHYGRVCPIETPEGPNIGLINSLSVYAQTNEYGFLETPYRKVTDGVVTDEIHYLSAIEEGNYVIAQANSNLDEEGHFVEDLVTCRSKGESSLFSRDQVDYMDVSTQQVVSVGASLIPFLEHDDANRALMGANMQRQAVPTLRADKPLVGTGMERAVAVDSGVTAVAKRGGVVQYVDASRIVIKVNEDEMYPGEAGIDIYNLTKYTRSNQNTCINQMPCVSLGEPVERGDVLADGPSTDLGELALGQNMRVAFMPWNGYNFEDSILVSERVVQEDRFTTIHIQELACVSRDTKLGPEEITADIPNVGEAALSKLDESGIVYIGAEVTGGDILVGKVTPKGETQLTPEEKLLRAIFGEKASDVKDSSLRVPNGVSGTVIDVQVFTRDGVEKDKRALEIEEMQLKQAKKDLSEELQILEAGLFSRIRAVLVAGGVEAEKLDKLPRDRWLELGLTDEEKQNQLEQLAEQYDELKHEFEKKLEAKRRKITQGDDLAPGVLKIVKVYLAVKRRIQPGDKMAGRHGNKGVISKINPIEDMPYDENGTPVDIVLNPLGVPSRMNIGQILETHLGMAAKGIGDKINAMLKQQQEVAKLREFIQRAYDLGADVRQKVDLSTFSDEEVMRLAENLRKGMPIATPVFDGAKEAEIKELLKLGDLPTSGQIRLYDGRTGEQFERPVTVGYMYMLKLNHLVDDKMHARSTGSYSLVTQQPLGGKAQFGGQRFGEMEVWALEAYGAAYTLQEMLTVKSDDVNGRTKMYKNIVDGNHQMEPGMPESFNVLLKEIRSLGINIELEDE
Sequence of E. coli RNA polymerase in elongating complexes and paused transcription complexes (transcription assays) (E. coli) (P0A8T7 whole entry, chain 3 of 3, further chain): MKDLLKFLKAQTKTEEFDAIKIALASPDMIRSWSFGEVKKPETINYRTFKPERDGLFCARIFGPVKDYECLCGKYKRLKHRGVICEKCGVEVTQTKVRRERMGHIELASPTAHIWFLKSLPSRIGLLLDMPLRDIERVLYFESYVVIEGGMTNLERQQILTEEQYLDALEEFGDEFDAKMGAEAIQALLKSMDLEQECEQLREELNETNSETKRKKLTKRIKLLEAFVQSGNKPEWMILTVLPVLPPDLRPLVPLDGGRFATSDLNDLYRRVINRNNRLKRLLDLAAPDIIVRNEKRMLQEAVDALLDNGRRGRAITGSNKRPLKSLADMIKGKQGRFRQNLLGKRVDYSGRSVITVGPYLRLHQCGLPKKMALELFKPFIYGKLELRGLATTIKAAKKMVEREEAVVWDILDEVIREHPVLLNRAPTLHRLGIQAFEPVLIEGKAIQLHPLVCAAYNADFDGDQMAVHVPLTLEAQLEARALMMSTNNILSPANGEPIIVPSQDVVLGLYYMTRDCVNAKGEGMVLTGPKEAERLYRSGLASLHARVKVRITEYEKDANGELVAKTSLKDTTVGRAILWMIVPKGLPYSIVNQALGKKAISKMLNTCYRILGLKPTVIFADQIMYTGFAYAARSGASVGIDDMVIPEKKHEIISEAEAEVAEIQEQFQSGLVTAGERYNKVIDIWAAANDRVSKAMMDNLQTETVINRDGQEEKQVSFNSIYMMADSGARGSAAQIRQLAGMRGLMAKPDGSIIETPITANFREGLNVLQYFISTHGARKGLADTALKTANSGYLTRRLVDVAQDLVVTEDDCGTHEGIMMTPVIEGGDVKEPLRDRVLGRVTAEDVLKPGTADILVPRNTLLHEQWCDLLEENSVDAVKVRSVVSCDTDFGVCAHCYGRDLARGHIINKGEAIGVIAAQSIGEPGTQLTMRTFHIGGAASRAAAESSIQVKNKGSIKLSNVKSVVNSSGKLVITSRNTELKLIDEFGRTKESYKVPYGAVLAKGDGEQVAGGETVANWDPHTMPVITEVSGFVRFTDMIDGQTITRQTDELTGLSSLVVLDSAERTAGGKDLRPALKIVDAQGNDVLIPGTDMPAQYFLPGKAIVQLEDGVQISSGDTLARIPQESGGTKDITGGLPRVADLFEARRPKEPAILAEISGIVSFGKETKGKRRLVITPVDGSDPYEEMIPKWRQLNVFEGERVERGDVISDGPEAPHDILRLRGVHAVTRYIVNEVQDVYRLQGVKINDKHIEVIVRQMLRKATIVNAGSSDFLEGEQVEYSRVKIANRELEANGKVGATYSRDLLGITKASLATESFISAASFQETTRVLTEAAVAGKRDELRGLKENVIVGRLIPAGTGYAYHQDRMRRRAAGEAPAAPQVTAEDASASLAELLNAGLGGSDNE

Regarding “NusA NTD with N-terminal deletion, Δ(3-18) NTD (from UniProt P0AFF6 1-137) (domain or fragment)”, the maximal pause stimulation k0/kNusA, his pause, scaffold was found to be 1.27.
